Data: publication PMC6143631 (Nature Communications, 2018)

T1: Ctr9^(1–313) (S. cerevisiae, UniProt P89105 1-313)
T1 construct: In the crystal it stood as part of the single-chain fusion m36; source: E. coli BL21(DE3) Codon Plus, co-expressed with a Paf1 fragment, purified (Ni-NTA, SEC)
T1 sequence (looked up): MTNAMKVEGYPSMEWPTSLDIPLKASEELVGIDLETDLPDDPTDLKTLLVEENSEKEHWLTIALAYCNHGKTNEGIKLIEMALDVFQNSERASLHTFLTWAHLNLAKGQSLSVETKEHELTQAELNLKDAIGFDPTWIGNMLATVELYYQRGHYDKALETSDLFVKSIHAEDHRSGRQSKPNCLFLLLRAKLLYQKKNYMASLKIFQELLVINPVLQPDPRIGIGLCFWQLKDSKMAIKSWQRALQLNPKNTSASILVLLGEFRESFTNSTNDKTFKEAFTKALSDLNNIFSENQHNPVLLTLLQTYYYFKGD

T2: Ctr9^(1–270) (S. cerevisiae, UniProt P89105 1-270)
T2 construct: S. cerevisiae Ctr9, residues 1-270
T2 sequence (looked up): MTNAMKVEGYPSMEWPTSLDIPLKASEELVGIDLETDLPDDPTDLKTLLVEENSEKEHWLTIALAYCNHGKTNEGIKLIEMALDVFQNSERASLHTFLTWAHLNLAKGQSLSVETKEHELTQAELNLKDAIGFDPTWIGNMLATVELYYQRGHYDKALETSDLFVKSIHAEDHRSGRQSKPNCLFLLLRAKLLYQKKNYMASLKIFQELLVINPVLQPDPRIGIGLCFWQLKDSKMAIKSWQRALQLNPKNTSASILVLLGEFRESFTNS


Key:
Ctr9^(1–313) = molecular target: T1, Ctr9^(1–313); experiment: SEC; two fragments co-expressed in E. coli and co-purified; analytical size-exclusion column with SDS-PAGE of the fractions; settings: both partners purified
Ctr9^(1–270) = molecular target: T2, Ctr9^(1–270); experiment: AUC; sedimentation velocity, 42,000 rpm, 4 °C, interference detection; 20 mM HEPES pH 7.5, 150 mM NaCl, 1 mM EDTA, 1 mM DTT; settings: both partners purified

| binding result (Ctr9^(1–313)) | stoichiometry N (Ctr9^(1–270)) | Binder |
| --- | --- | --- |
| binds |  | DEDLGMPVDLMKFPGLLNKLDSKLLYGFDNVKLDKDDRILLRDPR (domain or fragment, S. cerevisiae, UniProt P38351 59-103, looked up) [Paf1^(59–103)] |
|  | 1 | Paf1^(34–103) (domain or fragment, S. cerevisiae, UniProt P38351 34-103, looked up, In the crystal it stood as part of the single-chain fusion m36; source: E. coli BL21(DE3) Codon Plus, co-expressed with a Ctr9 fragment, purified (Ni-NTA, SEC)) ETNADSSQLINSLYIKTNVTNLIQQDEDLGMPVDLMKFPGLLNKLDSKLLYGFDNVKLDKDDRILLRDPR |
